Like-named read-outs stand apart in the source and are kept apart here.
Legend:
[1] = biological target: T1, hTF (human Tissue Factor construct) (human, UniProt P13726 33-251); assay: live cell staining, flow cytometry, transfected HEK293
T1 construct: also called human TF
Experimental: (§1) To establish binding of the anti-human TF antibodies to the various TF constructs, HEK293 cells were transfected with a DNA plasmid that co-expresses the TF construct and a green fluorescent protein marker. […] Upon acquisition of 80,000 live events on a flow cytometer, live cells marked with the fluorescent marker were analyzed for the degree of staining by the anti-TF antibody.

hTF_N171H_T197K = biological target: T2, hTF_N171H_T197K (human, UniProt P13726 33-251); assay: as above
T2 chain: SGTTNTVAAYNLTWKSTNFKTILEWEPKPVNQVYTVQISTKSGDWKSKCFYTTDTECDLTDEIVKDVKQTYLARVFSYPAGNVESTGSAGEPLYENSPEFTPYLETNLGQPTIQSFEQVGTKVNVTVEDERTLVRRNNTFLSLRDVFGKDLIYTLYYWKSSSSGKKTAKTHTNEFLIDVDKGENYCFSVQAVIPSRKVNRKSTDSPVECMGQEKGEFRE
Experimental: as §1

r141-194_h = r141-194_h (rat/human chimera, UniProt P42533 29-252); assay: as above
Experimental: as §1

rTF (rat TF) [2] = biological target: T3, rTF (rat TF) (rat, UniProt P42533 29-252); assay: as above
Experimental: as §1

h1-77_r = biological target: T4, h1-77_r (human/rat chimera); assay: as above
T4 construct: Human TF ECD with residues 1-77 replaced by rat segment
Experimental: as §1

h1-107_r = biological target: T5, h1-107_r (human/rat chimera); assay: as above
T5 chain: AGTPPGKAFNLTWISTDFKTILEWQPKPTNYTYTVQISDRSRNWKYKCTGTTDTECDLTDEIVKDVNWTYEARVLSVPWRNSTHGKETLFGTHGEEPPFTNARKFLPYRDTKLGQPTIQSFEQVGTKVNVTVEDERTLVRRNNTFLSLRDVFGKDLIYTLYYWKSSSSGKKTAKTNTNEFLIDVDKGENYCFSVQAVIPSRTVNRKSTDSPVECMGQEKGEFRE
Experimental: as §1

rTF (rat TF) [3] = biological target: T3, rTF (rat TF); assay: as above; remark: listed apart in the source
Experimental: as §1

h159-219_r = h159-219_r (human/rat chimera); assay: as above
Experimental: as §1

[4] = biological target: T6, cynomolgus monkey TF ECD-His6 (cynomolgus monkey (Macaca fascicularis)); assay: BLI (ForteBio Octet)
T6 construct: Expi293-derived; also called TF-His; cTF
T6 chain: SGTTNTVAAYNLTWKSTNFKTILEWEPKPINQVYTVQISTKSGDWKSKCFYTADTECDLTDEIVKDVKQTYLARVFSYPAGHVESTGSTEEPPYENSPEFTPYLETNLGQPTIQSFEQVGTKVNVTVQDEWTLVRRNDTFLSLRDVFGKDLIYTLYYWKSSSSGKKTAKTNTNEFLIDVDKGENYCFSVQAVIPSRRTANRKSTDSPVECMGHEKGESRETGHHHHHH
Experimental: (§2) Kinetic measurements for the anti-TF antibodies were conducted on an Octet QK384 (Pall ForteBio, Fremont, CA, USA) or a Biacore (GE Healthcare Bio-Sciences).
(§3) Briefly, ForteBio affinity measurements were performed by loading IgGs on-line onto AHC sensors. Sensors were equilibrated off-line in assay buffer for 30 min and then monitored on-line for 60 seconds for baseline establishment. Sensors with loaded IgGs were exposed to 100 nM antigen (human, cynomolgus, or mouse TF) for 3 min, afterwards they were transferred to assay buffer for 3 min for off-rate measurement. Alternatively, binding measurements were obtained by loading biotinylated TF monomer on SA sensors followed by exposure to 100 nM antibody Fab in solution. Kinetic data was analyzed and fitted using a 1:1 Langmuir binding model and the KD was calculated by dividing the koff by the kₒₙ.

human TF ECD-His6 [5] = biological target: T7, human TF ECD-His6 (human, UniProt P13726 33-251); assay: BLI (ForteBio Octet)
T7 construct: Expi293-derived; Biacore used TF-His; also called TF-His; hTF
Experimental: as §2, §3

mouse TF ECD-His6 = biological target: T8, mouse TF ECD-His6 (mouse, UniProt P20352 29-251); assay: BLI (ForteBio Octet)
T8 construct: Expi293-derived; also called TF-His; mTF
Experimental: as §2, §3

[6] = biological target: T9, rTF (rat TF) construct on HEK293 cells (rat, UniProt P42533 29-252); assay: flow cytometry (live cell staining), antibody titration 1:3 from 250 nM on HEK293 cells transfected with rTF
T9 construct: not shown: transmembrane/cytoplasmic anchor of the cell-surface construct

[7] = biological target: T10, human Tissue Factor on human TF-positive cells (human, UniProt P13726 33-295); assay: flow cytometry, titration of unconjugated antibody on HCT-116 cells (human TF), 4-parameter fit of MFI
T10 construct: also called hTF; CD142

[8] = biological target: T10, human Tissue Factor on human …; assay: competition flow cytometry on MDA-MB-231 cells: unlabeled antibody titration first, then 20 nM 25A3-Alexa488 as the competitor
[9] = biological target: T10, human Tissue Factor on human …; assay: flow cytometry, antibody titration on A431 cells (human TF), 4-parameter fit of MFI
Experimental: (§4) After 2 washes, dead cells were labeled with TO-PRO-3 Iodide (ThermoFisher Scientific) and samples were analyzed on a CytoFLEX flow cytometer (Beckman Coulter, Brea, CA, USA) or Novocyte flow cytometer (ACEA Biosciences, San Diego, CA, USA). The median fluorescence intensities (MFIs) at each dilution were plotted and cell EC₅₀'s were derived using a 4-parameter binding model in Prism (GraphPad, La Jolla, CA, USA).

[10] = biological target: T11, full-length mouse TF with a C-terminal FLAG tag on Flp-In-CHO cells (mouse, UniProt P20352 29-294); assay: flow cytometry on CHO cells expressing mouse TF, MFI at 250 nM antibody
T11 construct: also called CHO-mTF; mouse TF-positive CHO cells
Experimental: as §4

[11] = biological target: T6, cynomolgus monkey TF ECD-His6; assay: SPR (Biacore), TF-His over coupled antibody
Experimental: as §2
(§5) For the Biacore-based measurements, the antibody was covalently coupled to a CM5 or C1 chip using an amine-coupling kit (GE Healthcare Bio-Sciences). Association between the anti-TF antibodies and a five-point three-fold titration of TF-His starting at 25 to 500 nM was measured for 300 sec. Subsequently, dissociation between the anti-TF antibody and TF-His was measured for up to 1800 sec. Kinetic data was analyzed and fitted globally using a 1:1 binding model.

human TF ECD-His6 [12] = biological target: T7, human TF ECD-His6; assay: SPR (Biacore), TF-His over coupled antibody
Experimental: as §2, §5

[13] = biological target: T10, human Tissue Factor on human …; assay: competition flow cytometry on MDA-MB-231 cells: unlabeled antibody titration first, then 20 nM 43D7-Alexa488 as the competitor
Experimental: After another 1 hr incubation on ice, cells were washed, stained with a viability dye, and analyzed by flow cytometry. The Alexa488 fluorescence data from viable cells was summarized using median fluorescence intensity.

[14] = biological target: T10, human Tissue Factor on human …; assay: flow cytometry, antibody titration on MDA-MB-231 cells (human TF), 4-parameter fit of MFI
Experimental: as §4

[15] = biological target: T10, human Tissue Factor on human …; assay: competition flow cytometry on MDA-MB-231 cells: unlabeled antibody titration first, then 20 nM 25A3-Alexa488 as the competitor; remark: listed apart in the source
[16] = biological target: T10, human Tissue Factor on human …; assay: flow cytometry, antibody titration on HCT-116 cells (endogenous human TF), 4-parameter fit of MFI
Experimental: as §4

[17] = biological target: T12, hTF_N171H_T197K construct on HEK293 cells (human, UniProt P13726 33-251); assay: live cell staining, HEK293 cells
T12 construct: The entry already carries N171H and T197K; not shown: transmembrane/cytoplasmic anchor of the cell-surface construct
T12 chain: T2 chain

h108-219_r = biological target: T13, h108-219_r (human/rat chimera); assay: live cell staining, flow cytometry, transfected HEK293
T13 chain: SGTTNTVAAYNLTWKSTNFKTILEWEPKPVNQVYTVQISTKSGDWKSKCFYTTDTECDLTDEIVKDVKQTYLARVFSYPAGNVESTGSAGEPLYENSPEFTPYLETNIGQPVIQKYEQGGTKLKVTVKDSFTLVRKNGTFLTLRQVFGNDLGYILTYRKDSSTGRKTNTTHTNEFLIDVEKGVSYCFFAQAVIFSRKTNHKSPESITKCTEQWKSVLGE
Experimental: as §1

Expi293-derived TF-His = biological target: T14, Expi293-derived TF-His (human (Example 17 does not restate the …, UniProt P13726 33-251)); assay: protein ELISA, plate coated with Expi293-derived TF-His, antibody titrated, HRP secondary, luminescence; Expi293-derived TF, not E. coli-derived
T14 construct: Glycosylated TF ECD-His6 from Expi293 cells; also called Expi293-derived TF protein; TF ECD-His6
Experimental: (§6) Plates coated with Expi293- or E. coli-derived TF-His were incubated with increasing concentrations of antibodies.

E. coli-derived TF = biological target: T15, E. coli-derived TF (human (Example 17 does not restate the …, UniProt P13726 33-251)); assay: protein ELISA, plate coated with E. coli-derived TF-His, antibody titrated, HRP secondary, luminescence
T15 construct: also called E. coli-derived TF-His; E. coli-derived TF protein
Experimental: as §6

[18] = biological target: T16, Macaca mulatta TF on RF/6A cells (Macaca mulatta (protein sequence stated …, UniProt P13726 33-294 (human entry))); assay: flow cytometry, IgG1 titrated on TF-positive Macaca mulatta RF/6A cells, 4-parameter fit
T16 construct: Endogenous TF of the RF/6A cell line; also called TF-positive Macaca mulatta RF/6A cells; cynomolgus TF
T16 chain: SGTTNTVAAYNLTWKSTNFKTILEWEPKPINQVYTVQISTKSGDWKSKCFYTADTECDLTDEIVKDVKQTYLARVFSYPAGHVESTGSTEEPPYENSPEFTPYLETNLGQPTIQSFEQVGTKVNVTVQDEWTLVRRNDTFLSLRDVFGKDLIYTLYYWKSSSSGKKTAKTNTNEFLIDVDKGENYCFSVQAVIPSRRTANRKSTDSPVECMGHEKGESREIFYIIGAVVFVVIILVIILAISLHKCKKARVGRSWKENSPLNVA
Experimental: as §4

[19] = biological target: T17, r141-194_h chimeric rat-human TF construct on HEK293 cells (rat with human segment, UniProt P42533 29-252); assay: flow cytometry (live cell staining), antibody titration 1:3 from 250 nM on HEK293 cells transfected with r141-194_h
T17 construct: not shown: transmembrane/cytoplasmic anchor of the cell-surface construct

B1: 39A (antibody, V domains shown)
VH: QVQLVQSGAEVKKPGSSVKVSCKASGGTFSSNAIGWVRQAPGQGLEWMGSIIPIIGFANYAQKFQGRVTITADESTSTAYMELSSLRSEDTAVYYCARDSGYYYGASSFGMDVWGQGTTVTVSS
VL: EIVMTQSPATLSVSPGERATLSCRASQSVSSNLAWYQQKPGQAPRLLIYGASTRATGIPARFSGSGSGTEFTLTISSLQSEDFAVYYCEQYNNLPLTFGGGTKVEIK
notes: Human IgG (detected with anti-human IgG-Fc)
With B1 the “percent antibody binding to TF construct relative to hTF” value [1] was 100%, the “percent antibody binding to TF construct relative to hTF” value (hTF_N171H_T197K) was 94% and the “percent antibody binding to TF construct relative to hTF” value (r141-194_h) was 0%. For the same binder, the “percent antibody binding to TF construct relative to hTF” value (rTF (rat TF) [2]) was 0%, the “percent antibody binding to TF construct relative to hTF” value (h1-77_r) was 0% and the “percent antibody binding to TF construct relative to hTF” value (h1-107_r) was 0%. The “percent antibody binding to TF construct relative to hTF” value (rTF (rat TF) [3]) was 0% and the “percent antibody binding to TF construct relative to hTF” value (h159-219_r) was 141%.

B2: 25A3 (antibody, human IgG1, V domains shown)
VH: QVQLVQSGAEVKKPGASVKVSCKASGYTFDVYGISWVRQAPGQGLEWMGWIAPYSGNTNYAQKLQGRVTMTTDTSTSTAYMELRSLRSDDTAVYYCARDAGTYSPFGYGMDVWGQGTTVTVSS
VL: DIQMTQSPSTLSASVGDRVTITCQASQSINNWLAWYQQKPGKAPKLLIYKAYNLESGVPSRFSGSGSGTEFTLTISSLQPDDFATYYCQLFQSLPPFTFGGGTKVEIK
notes: Human IgG1; also called antibody designated 25A3
B2 showed a Kd [4] of 1.36 nM, a Kd (human TF ECD-His6 [5]) of 1.67 nM and a Kd (mouse TF ECD-His6) of 131 nM. The binding result [6] was “no binding (tested: 250 nM)”, the EC50 [7] was 0.16 nM and the IC50 [8] was 1.03 nM. For the same binder, the EC50 [9] was 0.5 nM, the “MFI at 250 nM” value [10] was 5.8e+06 and the Kd [11] was 0.21 nM. It also gave a Kd (human TF ECD-His6 [12]) of 0.36 nM, an IC50 [13] of 0.84 nM and an EC50 [14] of 0.17 nM. The IC50 [15] was 1.13 nM, the EC50 [16] was 0.077 nM and the binding result [17] was “no binding (tested: 15 ug/ml (100 nM); below 50% of hTF)”.

B3: 5G9 (humanized TF8-5G9, CNTO 860) (antibody, V domains shown)
VH: QVQLVESGGGVVQPGRSLRLSCKASGFNIKDYYMHWVRQAPGKGLEWIGLIDPENGNTIYDPKFQGRFTISADNSKNTLFLQMDSLRPEDTAVYYCARDNSYYFDYWGQGTPVTVSS
VL: DIQMTQSPSSLSASVGDRVTITCKASQDIRKYLNWYQQKPGKAPKLLIYYATSLADGVPSRFSGSGSGTDYTFTISSLQPEDIATYYCLQHGESPYTFGQGTKLEIT
notes: Previously described anti-TF antibody; detected with anti-human IgG-Fc; also called h5G9
With B3 the “percent antibody binding to TF construct relative to hTF” value (h108-219_r) was 0%.

B4: 1F (antibody, human IgG1, V domains shown)
VH: EVQLLESGGGLVQPGGSLRLSCAASGFTFSDYAMGWVRQAPGKGLEWVSTISGSGGLTYYADSVKGRFTISRDNSKNTLYLQMNSLRAEDTAVYYCAKAPYGYYMDVWGKGTTVTVSS
VL: not shown
notes: Human IgG1; also called antibody designated 1F
With B4 the EC50 (Expi293-derived TF-His) was 0.41 nM, the EC50 (E. coli-derived TF) was 0.32 nM and the EC50 [18] was 0.17 nM.

B5: 10H10 (M1593) (antibody, V domains shown)
VH: EVQLVQSGAEVKKPGESLRISCKGSGYTFAPYWIEWVRQMPGKGLEWMGDILPGTGFTTYSPSFQGHVTISADKSISTAYLQWSSLKASDTAMYYCARSGYYGNSGFAYWGQGTLVTVSS
VL: DIVMTQTPLSLPVTPGEPASISCKSSQSLLSSGNQKNYLTWYLQKPGQSPQLLIYWASTRESGVPDRFSGSGSGTDFTLKISRVEAEDVGVYYCQNDYTYPLTFGQGTKLEIK
notes: also called anti-TF M1593
B5: no binding (tested: 250 nM) [6]; no binding (tested: 250 nM) [19].

Reference: patent publication US20250361322A1 (ICONIC THERAPEUTICS, published 2025)
